Experimental data as given in PMC11406519.

What was measured:
[1] = target: GNNV-P R276A (Dragon grouper nervous necrosis virus); test: AUC; sedimentation velocity, pH 5.0, no divalent ions; 0.25–0.4 mg/mL, 60,000 rpm, 20 °C, absorbance at 280 nm, c(s) model (SEDFIT); monomer to trimer
[2] = target: GNNV-P: Dragon grouper NNV capsid protein P-domain (aa 221–338) plus the flexible linker (aa 214–220), wild type (Dragon grouper nervous necrosis virus); test: as above

Row | Substance | stoichiometry N [1] | stoichiometry N [2]
1 | GNNV-P R276A (domain or fragment) | 3 | 
2 | GNNV-P: Dragon grouper NNV capsid protein P-domain (aa 221–338) plus the flexible linker (aa 214–220), wild type (domain or fragment) |  | 3
